Reference: publication PMC9482650, “Quantitative fragmentomics allow affinity mapping of interactomes” (Nature Communications, 2022)

T1: PDZD4, Q76G19
T1 sequence (Q76G19 125-224, limits assumed, looked up): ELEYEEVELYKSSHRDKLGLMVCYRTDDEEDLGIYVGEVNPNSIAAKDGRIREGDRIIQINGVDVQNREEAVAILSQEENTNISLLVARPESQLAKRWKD

T2: USH1C_3, Q9Y6N9
T2 sequence (Q9Y6N9 447-547, limits assumed, looked up): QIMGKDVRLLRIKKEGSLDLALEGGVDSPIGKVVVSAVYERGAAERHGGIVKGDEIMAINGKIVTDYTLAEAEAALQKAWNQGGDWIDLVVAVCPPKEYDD

T3: PDZD2_1, O15018
T3 sequence (O15018 80-192, limits assumed, looked up): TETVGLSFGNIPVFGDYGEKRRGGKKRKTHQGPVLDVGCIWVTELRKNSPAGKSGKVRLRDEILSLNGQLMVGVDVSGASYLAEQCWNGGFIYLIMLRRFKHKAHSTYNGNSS

T4: PDZD2_5, O15018
T4 sequence (O15018 2617-2716, limits assumed, looked up): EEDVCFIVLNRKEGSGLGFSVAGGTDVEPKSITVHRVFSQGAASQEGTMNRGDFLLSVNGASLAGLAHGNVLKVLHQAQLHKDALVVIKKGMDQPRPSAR

T5: USH1C_1, Q9Y6N9
T5 sequence (Q9Y6N9 82-179, limits assumed, looked up): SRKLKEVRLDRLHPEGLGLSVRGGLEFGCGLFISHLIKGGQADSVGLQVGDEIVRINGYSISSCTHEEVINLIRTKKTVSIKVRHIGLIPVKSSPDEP

T6: MPDZ_2, O75970
T6 sequence (O75970 252-347, limits assumed, looked up): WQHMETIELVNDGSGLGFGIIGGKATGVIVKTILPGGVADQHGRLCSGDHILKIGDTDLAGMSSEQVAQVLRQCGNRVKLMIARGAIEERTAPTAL

T7: SHROOM2, Q13796
T7 sequence (Q13796 21-118, limits assumed, looked up): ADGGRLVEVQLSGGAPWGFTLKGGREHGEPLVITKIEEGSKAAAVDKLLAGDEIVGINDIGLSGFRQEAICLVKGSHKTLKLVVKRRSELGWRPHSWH

T8: SYNPO2L, Q9H987
T8 sequence (Q9H987 1-98, limits assumed, looked up): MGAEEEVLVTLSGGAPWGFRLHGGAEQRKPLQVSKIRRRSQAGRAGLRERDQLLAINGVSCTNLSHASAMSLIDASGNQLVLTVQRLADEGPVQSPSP

T9: PTPN13_4, Q12923
T9 sequence (Q12923 1783-1878, limits assumed, looked up): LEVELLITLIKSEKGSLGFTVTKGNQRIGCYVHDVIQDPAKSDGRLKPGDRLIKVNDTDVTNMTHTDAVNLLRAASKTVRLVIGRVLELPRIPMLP

T10: NHERF1_2, O14745
T10 sequence (O14745 149-244, limits assumed, looked up): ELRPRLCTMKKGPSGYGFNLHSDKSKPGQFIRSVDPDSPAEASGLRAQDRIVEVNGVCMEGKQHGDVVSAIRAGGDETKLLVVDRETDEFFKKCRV

T11: PDZD11, Q5EBL8
T11 sequence (Q5EBL8 42-139, limits assumed, looked up): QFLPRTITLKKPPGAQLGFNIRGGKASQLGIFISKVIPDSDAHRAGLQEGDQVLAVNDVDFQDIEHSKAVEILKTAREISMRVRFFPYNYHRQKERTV

T12: TJP3_2, O95049
T12 sequence (O95049 190-282, limits assumed, looked up): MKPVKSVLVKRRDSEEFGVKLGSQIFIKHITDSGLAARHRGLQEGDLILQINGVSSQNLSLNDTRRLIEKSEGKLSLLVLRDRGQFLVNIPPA

T13: PDZRN3_2, Q9UPQ7
T13 sequence (Q9UPQ7 414-513, limits assumed, looked up): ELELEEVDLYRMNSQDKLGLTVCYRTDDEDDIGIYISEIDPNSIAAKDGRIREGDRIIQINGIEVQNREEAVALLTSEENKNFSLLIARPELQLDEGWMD


How the values were obtained:
Assay in all cases: holdup assay
Design in all cases: key: below the threshold = too weak to quantify, mostly under pKd 3.1 to 4
Settings in all cases: plain residues with an end cap or a label only (N-terminal biotin on a linker: ttds)
PDZD4, Q76G19 = target: T1, PDZD4, Q76G19
MAGI3_5, Q5TCQ9 = target: MAGI3_5, Q5TCQ9
USH1C_3, Q9Y6N9 = target: T2, USH1C_3, Q9Y6N9
PDZD2_1, O15018 = target: T3, PDZD2_1, O15018
PDZD2_5, O15018 = target: T4, PDZD2_5, O15018
PDZD9, Q8IXQ8 = target: PDZD9, Q8IXQ8
USH1C_1, Q9Y6N9 = target: T5, USH1C_1, Q9Y6N9
MPDZ_2, O75970 = target: T6, MPDZ_2, O75970
GRIP2_2, Q9C0E4 = target: GRIP2_2, Q9C0E4
GRIP2_3, Q9C0E4 = target: GRIP2_3, Q9C0E4
SHROOM2, Q13796 = target: T7, SHROOM2, Q13796
SYNPO2L, Q9H987 = target: T8, SYNPO2L, Q9H987
PTPN13_4, Q12923 = target: T9, PTPN13_4, Q12923
NHERF1_2, O14745 = target: T10, NHERF1_2, O14745
PDZD11, Q5EBL8 = target: T11, PDZD11, Q5EBL8
TJP3_2, O95049 = target: T12, TJP3_2, O95049
MAGI3_6, Q5TCQ9 = target: MAGI3_6, Q5TCQ9
DVL2, O14641 = target: DVL2, O14641
MAGI3_2, Q5TCQ9 = target: MAGI3_2, Q5TCQ9
LMO7, Q8WWI1 = target: LMO7, Q8WWI1
LIMK1, P53667 = target: LIMK1, P53667
PDZRN3_2, Q9UPQ7 = target: T13, PDZRN3_2, Q9UPQ7
MAGI1_6, Q96QZ7 = target: MAGI1_6, Q96QZ7
Sequence of MAGI1_6, Q96QZ7 (Q96QZ7 1146-1238): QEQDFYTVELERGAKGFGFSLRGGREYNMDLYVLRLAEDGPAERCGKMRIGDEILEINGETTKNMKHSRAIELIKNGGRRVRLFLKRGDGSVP

Sequence of PDZD9, Q8IXQ8 (Q8IXQ8 23-120): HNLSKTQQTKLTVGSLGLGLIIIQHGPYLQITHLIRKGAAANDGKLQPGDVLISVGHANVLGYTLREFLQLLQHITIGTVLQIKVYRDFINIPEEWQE
Sequence of DVL2, O14641 (O14641 260-359): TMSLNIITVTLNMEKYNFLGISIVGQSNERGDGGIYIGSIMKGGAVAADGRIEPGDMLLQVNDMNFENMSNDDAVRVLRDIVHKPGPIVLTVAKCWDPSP
Sequence of LIMK1, P53667 (P53667 155-268): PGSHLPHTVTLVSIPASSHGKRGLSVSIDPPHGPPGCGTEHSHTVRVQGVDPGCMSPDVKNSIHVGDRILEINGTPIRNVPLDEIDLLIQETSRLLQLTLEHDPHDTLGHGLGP
Sequence of MAGI3_6, Q5TCQ9 (Q5TCQ9 1014-1103): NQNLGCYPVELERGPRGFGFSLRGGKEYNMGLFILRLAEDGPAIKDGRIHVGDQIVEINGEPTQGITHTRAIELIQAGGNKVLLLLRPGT
Sequence of LMO7, Q8WWI1 (Q8WWI1 1037-1138): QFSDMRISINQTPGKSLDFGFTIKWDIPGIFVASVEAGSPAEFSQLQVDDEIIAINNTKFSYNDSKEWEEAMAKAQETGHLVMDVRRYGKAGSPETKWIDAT
Sequence of MAGI3_5, Q5TCQ9 (Q5TCQ9 847-941): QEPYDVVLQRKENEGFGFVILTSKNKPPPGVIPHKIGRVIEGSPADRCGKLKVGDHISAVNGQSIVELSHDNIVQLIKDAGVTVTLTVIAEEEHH
Sequence of GRIP2_2, Q9C0E4 (Q9C0E4 137-245): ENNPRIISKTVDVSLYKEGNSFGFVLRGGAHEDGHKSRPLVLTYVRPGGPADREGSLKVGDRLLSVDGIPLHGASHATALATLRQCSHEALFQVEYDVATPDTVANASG
Sequence of GRIP2_3, Q9C0E4 (Q9C0E4 238-339): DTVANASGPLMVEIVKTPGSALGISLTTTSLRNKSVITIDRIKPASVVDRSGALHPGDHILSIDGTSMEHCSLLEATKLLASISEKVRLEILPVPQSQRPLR
Sequence of MAGI3_2, Q5TCQ9 (Q5TCQ9 398-503): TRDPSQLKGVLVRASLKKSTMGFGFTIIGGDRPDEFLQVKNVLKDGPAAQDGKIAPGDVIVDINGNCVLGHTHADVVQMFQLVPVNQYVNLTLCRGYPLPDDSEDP

pKd (PDZD4, Q76G19) | pKd (MAGI3_5, Q5TCQ9) | pKd (USH1C_3, Q9Y6N9) | pKd (PDZD2_1, O15018) | pKd (PDZD2_5, O15018) | pKd (PDZD9, Q8IXQ8) | pKd (USH1C_1, Q9Y6N9) | pKd (MPDZ_2, O75970) | pKd (GRIP2_2, Q9C0E4) | pKd (GRIP2_3, Q9C0E4) | pKd (SHROOM2, Q13796) | pKd (SYNPO2L, Q9H987) | pKd (PTPN13_4, Q12923) | pKd (NHERF1_2, O14745) | pKd (PDZD11, Q5EBL8) | pKd (TJP3_2, O95049) | pKd (MAGI3_6, Q5TCQ9) | pKd (DVL2, O14641) | pKd (MAGI3_2, Q5TCQ9) | pKd (LMO7, Q8WWI1) | Binder | other results
4.08 | 4.39 | below the threshold | 4.19 | below the threshold | below the threshold | 4.33 | below the threshold | below the threshold | below the threshold | 4.44 | below the threshold | below the threshold | below the threshold | 4.46 | below the threshold | 4.21 | below the threshold | 4 | below the threshold | STLTIFETAL [ABCC4, O15439] | pKd (LIMK1, P53667): 4.24; pKd (PDZRN3_2, Q9UPQ7): below the threshold; pKd (MAGI1_6, Q96QZ7): 4.22
4.14 | below the threshold | below the threshold | 4.3 | below the threshold | below the threshold | below the threshold | below the threshold | below the threshold | below the threshold | below the threshold | below the threshold | below the threshold | below the threshold | 4.3 | below the threshold | below the threshold | below the threshold | 3.71 | below the threshold | PKTPPTDTSV [KIR3DL3, Q8N743] | pKd (LIMK1, P53667): below the threshold; pKd (PDZRN3_2, Q9UPQ7): below the threshold; pKd (MAGI1_6, Q96QZ7): 4.22
below the threshold | below the threshold | below the threshold | below the threshold | below the threshold | below the threshold | below the threshold | below the threshold | below the threshold | below the threshold | below the threshold | below the threshold | below the threshold | below the threshold | below the threshold | below the threshold | 4.72 | below the threshold | below the threshold | below the threshold | QSARYRDTEL [TJP2, Q9UDY2] | pKd (LIMK1, P53667): below the threshold; pKd (PDZRN3_2, Q9UPQ7): below the threshold; pKd (MAGI1_6, Q96QZ7): 4.71
